# Measurements published in IntAct's records for PubMed 31515488.
# B1: Tuftelin-interacting protein 11 (Homo sapiens), Q9UBB9 (parent)
# chain: MSLSHLYRDGEGRIDDDDDERENFEITDWDLQNEFNPNRQRHWQTKEEATYGVWAERDSDDERPSFGGKRARDYSAPVNFISAGLKKGAAEEAELEDSDDEEKPVKQDDFPKDFGPRKLKTGGNFKPSQKGFAGGTKSFMDFGSWERHTKGIGQKLLQKMGYVPGRGLGKNAQGIINPIEAKQRKGKGAVGAYGSERTTQSMQDFPVVDSEEEAEEEFQKELSQWRKDPSGSKKKPKYSYKTVEELKAKGRISKKLTAPQKELSQVKVIDMTGREQKVYYSYSQISHKHNVPDDGLPLQSQQLPQSGKEAKAPGFALPELEHNLQLLIDLTEQEIIQNDRQLQYERDMVVNLFHELEKMTEVLDHEERVISNLSKVLEMVEECERRMQPDCSNPLTLDECARIFETLQDKYYEEYRMSDRVDLAVAIVYPLMKEYFKEWDPLKDCTYGTEIISKWKSLLENDQLLSHGGQDLSADAFHRLIWEVWMPFVRNIVTQWQPRNCDPMVDFLDSWVHIIPVWILDNILDQLIFPKLQKEVENWNPLTDTVPIHSWIHPWLPLMQARLEPLYSPIRSKLSSALQKWHPSDSSAKLILQPWKDVFTPGSWEAFMVKNIVPKLGMCLGELVINPHQQHMDAFYWVIDWEGMISVSSLVGLLEKHFFPKWLQVLCSWLSNSPNYEEITKWYLGWKSMFSDQVLAHPSVKDKFNEALDIMNRAVSSNVGAYMQPGARENIAYLTHTERRKDFQYEAMQERREAENMAQRGIGVAASSVPMNFKDLIETKAEEHNIVFMPVIGKRHEGKQLYTFGRIVIYIDRGVVFVQGEKTWVPTSLQSLIDMAK
# partner: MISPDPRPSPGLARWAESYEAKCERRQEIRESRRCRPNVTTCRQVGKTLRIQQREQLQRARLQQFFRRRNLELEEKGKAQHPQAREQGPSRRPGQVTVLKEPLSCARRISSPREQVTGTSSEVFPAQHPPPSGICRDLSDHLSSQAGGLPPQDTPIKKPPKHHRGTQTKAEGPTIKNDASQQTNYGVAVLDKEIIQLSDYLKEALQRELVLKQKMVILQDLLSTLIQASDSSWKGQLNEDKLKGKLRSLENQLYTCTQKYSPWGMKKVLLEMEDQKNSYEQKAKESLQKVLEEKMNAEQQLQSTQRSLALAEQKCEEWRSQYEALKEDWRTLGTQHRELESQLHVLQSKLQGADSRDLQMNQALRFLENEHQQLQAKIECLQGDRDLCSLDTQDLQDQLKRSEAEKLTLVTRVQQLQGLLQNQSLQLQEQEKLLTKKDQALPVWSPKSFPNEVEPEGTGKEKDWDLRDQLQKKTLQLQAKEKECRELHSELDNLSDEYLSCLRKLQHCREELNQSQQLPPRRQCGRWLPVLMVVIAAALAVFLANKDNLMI
# B2: Sperm-associated microtubule inner protein 4 (Homo sapiens), Q8N865 (parent)
# chain: MEVIHGRPYCCRELEGADILSNTFYSNELHNPLQTVTRPTASEDRYQELRESLQQCRLPWGAEREYGGIIPISLPEDHRPKYEPPRVMGKGHQHYGFGGETWPRKLPVEQFYYLTQNKKSDVYGNDSLIPKPPNSTVGEICLPYPIEHPYHTHICRGAMFPTFTSPEDLYTGIKARTQQPFPPTVPTKAYDSTVLKTRGNPYRYELIDIPMDSKKKALTWPGQGVYYDFPRGVEKNKPVFYPKPPKTFAPNTSLNSWDPICSAKEANIQRNLERSHWLTSYTHDFTGLGPMDPLELDDYHEKMVAELTRKIGFDPEPQEKFHPVFKPPRPLEGRIARLIQNRRSLEAIVQQRPRSCPDCTPRVLCNFHTFVPSSKEMVALSDNIPAGVTHKNQDIEEKIIEEQSLLSTYELPSCYPTKDLTSIYDIKPFPKITDTKKTEDLYWRQQSLKTQPTPYCKPDHWIHYENLKSPLRDQYNMCPDPVSLSKPSVLQNKQDTEAFTLEHFLSKPEEELFLNMENNEETRPVLGWIPRAGVTKPQTNLLELKNSFSKTGAQKRFHKSILEDHKDLRDNEHSGMKHQFYGHNSYYFYN
# partner: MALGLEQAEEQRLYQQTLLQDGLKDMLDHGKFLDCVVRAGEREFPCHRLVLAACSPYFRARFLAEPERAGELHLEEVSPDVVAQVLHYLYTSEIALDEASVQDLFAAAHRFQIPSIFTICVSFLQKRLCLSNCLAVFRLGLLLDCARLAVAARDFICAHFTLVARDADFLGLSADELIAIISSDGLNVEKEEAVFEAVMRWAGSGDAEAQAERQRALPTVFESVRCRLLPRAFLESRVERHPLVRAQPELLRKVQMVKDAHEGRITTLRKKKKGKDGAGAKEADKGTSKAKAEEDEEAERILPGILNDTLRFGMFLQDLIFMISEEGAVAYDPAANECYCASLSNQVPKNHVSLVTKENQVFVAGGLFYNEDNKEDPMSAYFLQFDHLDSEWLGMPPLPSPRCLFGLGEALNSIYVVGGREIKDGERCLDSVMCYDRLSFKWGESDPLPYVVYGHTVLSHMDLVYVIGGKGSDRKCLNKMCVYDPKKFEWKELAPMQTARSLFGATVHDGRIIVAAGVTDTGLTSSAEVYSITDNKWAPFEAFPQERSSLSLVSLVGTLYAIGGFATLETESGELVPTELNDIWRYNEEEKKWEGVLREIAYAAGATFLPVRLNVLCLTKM
# B3: Microtubule-associated tumor suppressor candidate 2 (Homo sapiens), Q5JR59-3 (parent)
# chain: MGHCCCKPYNCLQCLDKTNESALVKEKELSIELANIRDEVAFHTAKCEKLQKEKEELERRFEDEVKRLGWQQQAELQELEERLQLQFEAEMARLQEEHGDQLLSIRCQHQEQVEDLTASHDAALLEMENNHTVAITILQDDHDHKVQELMSTHELEKKELEENFEKLRLSLQDQVDTLTFQSQSLRDRARRFEEALRKNTEEQLEIALAPYQHLEEDMKSLKQVLEMKNQQIHEQEKKILELEKLAEKNIILEEKIQVLQQQNEDLKARIDQNTVVTRQLSEENANLQEYVEKETQEKKRLSRTNEELLWKLQTGDPTSPIKLSPTSPVYRGSSSGPSSPARVSTTPR
# partner: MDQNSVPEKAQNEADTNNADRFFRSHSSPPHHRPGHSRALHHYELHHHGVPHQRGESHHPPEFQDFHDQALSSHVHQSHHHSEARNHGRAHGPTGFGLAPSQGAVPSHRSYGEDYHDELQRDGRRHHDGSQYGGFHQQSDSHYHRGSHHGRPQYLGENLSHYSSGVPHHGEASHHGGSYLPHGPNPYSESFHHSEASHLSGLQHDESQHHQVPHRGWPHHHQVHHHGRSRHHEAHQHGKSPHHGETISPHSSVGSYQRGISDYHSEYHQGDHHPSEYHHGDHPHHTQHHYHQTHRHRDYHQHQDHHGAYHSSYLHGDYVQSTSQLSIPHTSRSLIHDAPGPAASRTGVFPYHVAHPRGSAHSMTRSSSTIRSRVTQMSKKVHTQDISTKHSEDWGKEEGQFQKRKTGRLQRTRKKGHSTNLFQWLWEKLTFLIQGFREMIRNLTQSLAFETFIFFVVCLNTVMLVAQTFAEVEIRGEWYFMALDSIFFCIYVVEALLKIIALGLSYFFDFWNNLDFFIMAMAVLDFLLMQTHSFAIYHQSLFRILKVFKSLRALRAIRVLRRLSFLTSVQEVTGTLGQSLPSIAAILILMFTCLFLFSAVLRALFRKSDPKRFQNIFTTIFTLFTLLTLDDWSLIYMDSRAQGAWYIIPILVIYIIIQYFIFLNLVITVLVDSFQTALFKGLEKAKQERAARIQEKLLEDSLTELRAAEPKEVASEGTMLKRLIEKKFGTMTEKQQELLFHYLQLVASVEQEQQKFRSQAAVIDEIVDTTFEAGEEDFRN
# B4: Centriolar satellite-associated tubulin polyglutamylase complex regulator 1 (Homo sapiens), Q9H6J7 (parent)
# chain: MLSPERLALPDYEYLAQRHVLTYMEDAVCQLLENREDISQYGIARFFTEYFNSVCQGTHILFREFSFVQATPHNRVSFLRAFWRCFRTVGKNGDLLTMKEYHCLLQLLCPDFPLELTQKAARIVLMDDAMDCLMSFSDFLFAFQIQFYYSEFLDSVAAIYEDLLSGKNPNTVIVPTSSSGQHRQRPALGGAGTLEGVEASLFYQCLENLCDRHKYSCPPPALVKEALSNVQRLTFYGFLMALSKHRGINQALGALPDKGDLMHDPAMDEELERLLAQVPGLVNSVTASPEASCLPSRTPPRVGSPWRPLHHSRKVDGESDGSTEETDESET
# partner: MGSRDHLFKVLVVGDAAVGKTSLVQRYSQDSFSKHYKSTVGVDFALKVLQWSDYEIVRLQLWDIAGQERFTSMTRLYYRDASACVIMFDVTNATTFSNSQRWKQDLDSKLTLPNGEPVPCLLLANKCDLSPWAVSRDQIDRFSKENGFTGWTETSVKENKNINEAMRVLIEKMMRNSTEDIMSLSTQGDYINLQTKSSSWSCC
# Variants of: B1
# Conditions: with TRAF3IP3, Q9Y228
row,effect of a mutation on the interaction,Variant
1,with no effect,M140V

# Variants of: B2
# Conditions: with klh40_human KLHL40, Q2TBA0
row,effect of a mutation on the interaction,Variant
1,with no effect,P238Q
2,with no effect,A158T
3,with no effect,H300R

# Variants of: B3
# Conditions: with ctsr1_human CATSPER1, Q8NEC5
row,effect of a mutation on the interaction,Variant
1,with no effect,A89V

# Variants of: B4
# Conditions: with rab7l_human RAB29, O14966
row,effect of a mutation on the interaction,Variant
1,with no effect,S177L
